These results are taken from US20140186359A1 (TORAY INDUSTRIES, published 2014).

B1: human-mouse chimeric monoclonal antibody #1 (antibody, V domains shown)
VH: GPGLVQPSQSLSITCTVSGFSLTTYDLHWVRQSPGKGLEWLGVIWSGGSTDYNAAFISRLSISKDNSKSQVFFKMNSLQANDTAIYYCARNYGYSAWFAYWGQGTLVTVSA
VL: DVLMTQTPLSLPVSLGDQASISCRSSQSIVHSNGNTYLEWYLQKPGQSPKLLIYKVSNRFSGVPDRFSGSGSGTDFTLKISRVEAEDLGVYYCFQGSHVPLTFGAGTKLELKR
B2: human-mouse chimeric monoclonal antibody #2 (antibody, human IgG1, kappa, V domains shown)
VH: GGGLVKPGGSLKLSCAASGFTFSSYGMSWVRQTPEKRLEWVATISSGGSYTYYPDSVKGRFTISRDNAKNTLYLQMSSLRSEDTAMYYCASLASYYFDYWGQGTTLTVSS
VL: GARCDVQMIQSPSSLSASLGDIVTMTCQASQGTSINLNWFQQKPGKAPKLLIYGASSLEDGVPSRFSGSCFGTDFTLTISSLEDEDMATYFCLQHSYLPPLTFGAGTKLELKR
B3: human-mouse chimeric monoclonal antibody #3 (antibody, human IgG1, kappa, V domains shown)
VH: GGGLVKPGGSLKLSCAASGFTFSSYGMSWVRQTPEKRLEWVATISSGGSYTYYPDSVKGRFTISRDNAKNTLYLQMSSLRSEDTAMYYCASLASYYFDYWGQGTTLTVSS
VL: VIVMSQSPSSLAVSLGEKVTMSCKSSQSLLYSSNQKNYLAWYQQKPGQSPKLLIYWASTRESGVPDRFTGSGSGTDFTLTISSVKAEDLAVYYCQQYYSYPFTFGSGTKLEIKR
B4: human-chicken chimeric monoclonal antibody #4 (antibody, V domains shown)
VH: AVTLDESGGGLQTPGGAVSLVCKGSGFTFSSYGMGWVRQAPGKGLEYVAAIRKDGSTNYGPAVKGRATISRDNGQSTVRLQLSNLRAEDTATYYCAKRSHTGVNAAKIDAWGRGTEVIVS
VL: ALTQPASVSANPGETVKITCSGASHNYGWFQQKSPGSAPVTVIYSNDKRPSDIPSRFSGSKSGSTATLTITGVQADDEAVYFCGGYNIYGPTFGAGTTLTV
B5: human-mouse chimeric comparative monoclonal antibody 2 (antibody, human IgG1, kappa)
heavy: not shown
light: AVLRCSRGLLVIWISDIQLTQSPSSLAVTAGEKVTMSCKSSQSLLWSVNQKNYLSWYQQKQRQPPKLLIYGASIRESWVPDRFTGSGSGTDFTLTISNVHAEDLAVYYCQHNHGSFLPSRSEQVPSWRSNNRTVAAPSVFIFPPSDEQLKSGTASVVCLLNNFYPREAKVQWKVDNALQSGNSQESVTEQDSKDSTYSLSSTLTLSKADYEKHKVYACEVTHQGLSSPVTKSFNRGEC
B6: human-chicken chimeric monoclonal antibody #3 (antibody, V domains shown)
VH: AVTLDESGGGLQTPGGGLSLVCKGSGFTFSSFGMFWVRQAPGKGLEFVASISDNGRSTYYGSAVKGRATISRDDGQSTVRLQLNNLRAEDTGTYYCAKNAYVGRGCCFSYSIDAWGHGTEVIVS
VL: ALTQPASVSVNPGETVKITCSGGGSSSDAYGWYQQKSPGSAPVTLIYNGSNRPSHIPSRFSGSTSGSTNTLTITGVQVEDEAIYFCGSTDTSTSVGIFGAGTTLTV
B7: human-mouse chimeric comparative monoclonal antibody 1 (antibody, human IgG1, kappa)
heavy: not shown
light: DIQMTQSPASLSASVGETVTITCRASGNIHNYLAWYQQKQGKSPQLLVYNAKTLADGVPSRFSGSGSGTQYSLKINSLQPEDFGSYYCQHFWSTLTFGAGTKLELKRADAAPTVSNPYDTVAAPSVFIFPPSDEQLKSGTASVVCLLNNFYPREAKVQWKVDNALQSGNSQESVTEQDSKDSTYSLSSTLTLSKADYEKHKVYACEVTHQGLSSPVTKSFNRGEC
B8: human-chicken chimeric monoclonal antibody #1 (antibody, V domains shown)
VH: AVTLDESGGGLQTPGGALSLVCKASGFTFRSHSMFWVRQAPGKGLEYVAGIYGVGRSIRYGSAVKGRATMSRDNGQSTVRLQLNNLRAEDTATYYCAKSGYFSNSRYWDSGAYFIDAWGHGTEVIVS
VL: ALTQPASVSANPGETVEITCSGGYSNYGWYQQKSPGSAPVTVIYYNDKRPSDIPSRFSGSKSGSTATLTITGVQAEDEAVYFCGGYDSSTDAGIFGAGTTLTV
B9: human-chicken chimeric monoclonal antibody #2 (antibody, V domains shown)
VH: AVTLDESGGGLQTPGGALSLVCKASGFTFRSHSMFWVRQAPGKGLEYVAGIYGVGRSIRYGSAVKGRATMSRDNGQSTVRLQLNNLRAEDTGTYYCAKSGYFSNRRYWDSGAYFIDAWGHGTEVIVS
VL: ALTQPASVSANLGGTVEITCSGGYSNYGWYQQKSPGSAPVTVIYYNDKRPSDIPSRFSGSKSGSTGTLTITGVRAEDEAVYYCGGYDSSTDAGIFGAGTTLTV
B10: human-mouse chimeric comparative monoclonal antibody 3 (antibody, human IgG1, kappa)
heavy: not shown
light: RTTSHMDSDIQLTQSPASLSASVGETVTITCRASGNIHNYLAWYQQKQGKSPQLLVYNAKTLADGVPSRFSGSGSGTQYSLKINSLQPEDFGSYYCQHFWSTLTFGGGTKLEIKQSDTVAAPSVFIFPPSDEQLKSGTASVVCLLNNFYPREAKVQWKVDNALQSGNSQESVTEQDSKDSTYSLSSTLTLSKADYEKHKVYACEVTHQGLSSPVTKSFNRGEC
Throughout, for ADCC cytotoxic activity (51Cr release) against A549: test concentration or dose not given here.
Throughout, for ADCC cytotoxic activity (51Cr release) against Caki-1: test concentration or dose not given here.
Throughout, for ADCC cytotoxic activity (51Cr release) against Caki-2: test concentration or dose not given here.
Throughout, for ADCC cytotoxic activity (51Cr release) against DLD-1: test concentration or dose not given here.
Throughout, for ADCC cytotoxic activity (51Cr release) against HCT-116: test concentration or dose not given here.
Throughout, for ADCC cytotoxic activity (51Cr release) against MCF7: test concentration or dose not given here.
Throughout, for ADCC cytotoxic activity (51Cr release) against MDA-MB-436: test concentration or dose not given here.
Throughout, for ADCC cytotoxic activity (51Cr release) against MIAPaCa-2: test concentration or dose not given here.
Throughout, for ADCC cytotoxic activity (51Cr release) against Panc-1: test concentration or dose not given here.
Throughout, for ADCC cytotoxic activity (51Cr release) against QG56: test concentration or dose not given here.

In this assay the target is T1, human CAPRIN-1 expressed on the surface of human cancer cells (human, UniProt Q14444 2-709).
T1 sequence: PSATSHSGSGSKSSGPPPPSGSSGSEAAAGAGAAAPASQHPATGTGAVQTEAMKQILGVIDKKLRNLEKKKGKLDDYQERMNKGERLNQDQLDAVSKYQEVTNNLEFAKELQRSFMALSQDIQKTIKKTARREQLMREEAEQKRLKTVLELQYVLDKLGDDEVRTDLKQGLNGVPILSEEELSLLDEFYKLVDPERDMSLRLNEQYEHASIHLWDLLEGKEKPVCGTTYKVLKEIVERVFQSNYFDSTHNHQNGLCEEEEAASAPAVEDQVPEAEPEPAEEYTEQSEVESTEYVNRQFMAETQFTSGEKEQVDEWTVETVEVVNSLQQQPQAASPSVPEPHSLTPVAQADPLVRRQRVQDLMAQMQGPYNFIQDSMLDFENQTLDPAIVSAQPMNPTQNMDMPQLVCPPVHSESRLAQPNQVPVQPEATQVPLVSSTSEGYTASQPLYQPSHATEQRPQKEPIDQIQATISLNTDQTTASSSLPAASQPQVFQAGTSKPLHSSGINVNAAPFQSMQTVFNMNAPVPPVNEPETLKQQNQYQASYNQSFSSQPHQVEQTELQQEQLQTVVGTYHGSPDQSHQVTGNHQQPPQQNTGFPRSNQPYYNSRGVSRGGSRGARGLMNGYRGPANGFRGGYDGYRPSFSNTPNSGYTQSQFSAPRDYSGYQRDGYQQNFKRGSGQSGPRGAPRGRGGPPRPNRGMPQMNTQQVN
Description: cell-based or functional assay.
As to B1, the “ADCC cytotoxic activity (51Cr release) against Caki-2” value was at least 34%, the “ADCC cytotoxic activity (51Cr release) against HCT-116” value is at least 19%, the “ADCC cytotoxic activity (51Cr release) against MCF7” value is at least 30% and the “ADCC cytotoxic activity (51Cr release) against MIAPaCa-2” value was at least 28%. Further, the “ADCC cytotoxic activity (51Cr release) against QG56” value was at least 10% and the “ADCC cytotoxic activity (51Cr release) against all other cancer cell lines listed” value is at least 10%.
For the molecule B2, the “ADCC cytotoxic activity (51Cr release) against Caki-2” value was at least 18%, the “ADCC cytotoxic activity (51Cr release) against HCT-116” value is at least 18%, the “ADCC cytotoxic activity (51Cr release) against MCF7” value was at least 32% and the “ADCC cytotoxic activity (51Cr release) against MIAPaCa-2” value is at least 32%. The “ADCC cytotoxic activity (51Cr release) against QG56” value was at least 10% and the “ADCC cytotoxic activity (51Cr release) against all other cancer cell lines listed” value is at least 10%.
In the case of B3, the “ADCC cytotoxic activity (51Cr release) against Caki-2” value is at least 18%, the “ADCC cytotoxic activity (51Cr release) against HCT-116” value is at least 18%, the “ADCC cytotoxic activity (51Cr release) against MCF7” value is at least 32% and the “ADCC cytotoxic activity (51Cr release) against MIAPaCa-2” value is at least 32%. The “ADCC cytotoxic activity (51Cr release) against QG56” value is at least 10% and the “ADCC cytotoxic activity (51Cr release) against all other cancer cell lines listed” value was at least 10%.
Turning to B4, the “ADCC cytotoxic activity (51Cr release) against A549” value was at least 12%, the “ADCC cytotoxic activity (51Cr release) against Caki-1” value was at least 14%, the “ADCC cytotoxic activity (51Cr release) against Caki-2” value is at least 34% and the “ADCC cytotoxic activity (51Cr release) against DLD-1” value is at least 15%. For the same molecule, the “ADCC cytotoxic activity (51Cr release) against HCT-116” value is at least 19%, the “ADCC cytotoxic activity (51Cr release) against MCF7” value is at least 30%, the “ADCC cytotoxic activity (51Cr release) against MDA-MB-436” value was at least 18% and the “ADCC cytotoxic activity (51Cr release) against MIAPaCa-2” value was at least 28%. Also, the “ADCC cytotoxic activity (51Cr release) against Panc-1” value was at least 18%, the “ADCC cytotoxic activity (51Cr release) against QG56” value was at least 10% and the “ADCC cytotoxic activity (51Cr release) against all other cancer cell lines listed” value was at least 10%.
Consider B5, for which the “ADCC cytotoxic activity (51Cr release) against Caki-2” value was under 8%, the “ADCC cytotoxic activity (51Cr release) against HCT-116” value is under 3%, the “ADCC cytotoxic activity (51Cr release) against MCF7” value is under 5% and the “ADCC cytotoxic activity (51Cr release) against MIAPaCa-2” value is 7%. The “ADCC cytotoxic activity (51Cr release) against QG56” value was under 5% and the “ADCC cytotoxic activity (51Cr release) against all other cancer cell lines listed” value was under 4%.
On to B6, for which the “ADCC cytotoxic activity (51Cr release) against A549” value is at least 12%, the “ADCC cytotoxic activity (51Cr release) against Caki-1” value is at least 14%, the “ADCC cytotoxic activity (51Cr release) against Caki-2” value was at least 34% and the “ADCC cytotoxic activity (51Cr release) against DLD-1” value is at least 15%. The “ADCC cytotoxic activity (51Cr release) against HCT-116” value is at least 19%, the “ADCC cytotoxic activity (51Cr release) against MCF7” value was at least 30%, the “ADCC cytotoxic activity (51Cr release) against MDA-MB-436” value is at least 18% and the “ADCC cytotoxic activity (51Cr release) against MIAPaCa-2” value was at least 28%. The “ADCC cytotoxic activity (51Cr release) against Panc-1” value is at least 18%, the “ADCC cytotoxic activity (51Cr release) against QG56” value is at least 10% and the “ADCC cytotoxic activity (51Cr release) against all other cancer cell lines listed” value is at least 10%.
For the molecule B7, the “ADCC cytotoxic activity (51Cr release) against Caki-2” value was under 8%, the “ADCC cytotoxic activity (51Cr release) against HCT-116” value is under 3%, the “ADCC cytotoxic activity (51Cr release) against MCF7” value was under 5% and the “ADCC cytotoxic activity (51Cr release) against MIAPaCa-2” value was 7%. Besides, the “ADCC cytotoxic activity (51Cr release) against QG56” value was under 5% and the “ADCC cytotoxic activity (51Cr release) against all other cancer cell lines listed” value is under 4%.
With B8, the “ADCC cytotoxic activity (51Cr release) against A549” value was at least 12%, the “ADCC cytotoxic activity (51Cr release) against Caki-1” value was at least 14%, the “ADCC cytotoxic activity (51Cr release) against Caki-2” value was at least 34% and the “ADCC cytotoxic activity (51Cr release) against DLD-1” value is at least 15%. The “ADCC cytotoxic activity (51Cr release) against HCT-116” value is at least 19%, the “ADCC cytotoxic activity (51Cr release) against MCF7” value is at least 30%, the “ADCC cytotoxic activity (51Cr release) against MDA-MB-436” value is at least 18% and the “ADCC cytotoxic activity (51Cr release) against MIAPaCa-2” value was at least 28%. Also, the “ADCC cytotoxic activity (51Cr release) against Panc-1” value is at least 18%, the “ADCC cytotoxic activity (51Cr release) against QG56” value was at least 10% and the “ADCC cytotoxic activity (51Cr release) against all other cancer cell lines listed” value was at least 10%.
With B9, the “ADCC cytotoxic activity (51Cr release) against A549” value is at least 12%, the “ADCC cytotoxic activity (51Cr release) against Caki-1” value is at least 14%, the “ADCC cytotoxic activity (51Cr release) against Caki-2” value was at least 34% and the “ADCC cytotoxic activity (51Cr release) against DLD-1” value is at least 15%. In addition, the “ADCC cytotoxic activity (51Cr release) against HCT-116” value was at least 19%, the “ADCC cytotoxic activity (51Cr release) against MCF7” value is at least 30%, the “ADCC cytotoxic activity (51Cr release) against MDA-MB-436” value is at least 18% and the “ADCC cytotoxic activity (51Cr release) against MIAPaCa-2” value is at least 28%. Moreover, the “ADCC cytotoxic activity (51Cr release) against Panc-1” value is at least 18%, the “ADCC cytotoxic activity (51Cr release) against QG56” value is at least 10% and the “ADCC cytotoxic activity (51Cr release) against all other cancer cell lines listed” value is at least 10%.
As to B10, the “ADCC cytotoxic activity (51Cr release) against Caki-2” value was under 8%, the “ADCC cytotoxic activity (51Cr release) against HCT-116” value is under 3%, the “ADCC cytotoxic activity (51Cr release) against MCF7” value was under 5% and the “ADCC cytotoxic activity (51Cr release) against MIAPaCa-2” value came to 7%. For the same molecule, the “ADCC cytotoxic activity (51Cr release) against QG56” value is under 5% and the “ADCC cytotoxic activity (51Cr release) against all other cancer cell lines listed” value is under 4%.
